From patent US20170152308A1 (Biogen, published 2017) come the findings set out here.

Usually EC50 stands for the concentration at which the effect is half-maximal.

For experiment [1], the target named is T1, recombinant full-length His-tagged human TDP-43 (2-414) (human, UniProt Q13148 2-414).
T1 construct: Amino terminal His tag, made in E. coli, purified in 8 M urea; also called full length TDP-43; full-length TDP-43
Description: direct ELISA, coated antigen. Put shortly: (§1)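 Plates coated overnight at 4° C with full-length TDP-43 at 5 μg/ml in carbonate buffer pH 9.6, with E. coli extract and BSA coated alongside. After blocking with 2% BSA, antibodies incubated 1 hr at room temperature and detected by HRP anti-human IgGγ colorimetric read-out. EC₅₀ from non-linear regression.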
(In general: An ELISA detects its analyte on a solid surface through an enzyme-linked reagent.)

Experiment [2] deals with T2, His-huTDP-43 domain III (amino acid residues 183-273) (human).
T2 construct: Amino terminal His-tagged fragment, E. coli
T2 chain: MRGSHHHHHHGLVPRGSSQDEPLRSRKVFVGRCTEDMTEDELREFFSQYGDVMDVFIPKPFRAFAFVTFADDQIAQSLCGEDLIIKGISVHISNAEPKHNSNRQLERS
As to the kind of experiment: Western blot, 300 ng recombinant protein per lane, primary antibody 10 nM. The method, then: (§2) Non-specific binding sites were blocked for 1 hr. at room temperature with PBST containing 2% BSA (Sigma, Buchs, Switzerland). Blots were incubated overnight with primary antibodies (10 nM) followed by either a donkey anti-human IgGγ-specific secondary antibody conjugated with HRP (Jackson ImmunoResearch, USA) or a goat-anti mouse IgG (H+L)-specific secondary antibody conjugated with HRP (Jackson ImmunoResearch, USA). Blots were developed using ECL and ImageQuant 350 detection (GE Healthcare, Otelfingen, Switzerland).
In general terms: In western blotting, separated proteins are transferred to a membrane and probed.

In experiment [3] the target is T3, His-huTDP-43 domain IV (amino acid residues 258-414) (human, UniProt Q13148 258-414).
T3 construct: Amino terminal His-tagged fragment, E. coli, solubilized in 8 M urea; also called Glycine-rich domain
Described as above. The method, then:
as §2

For experiment [4], the target named is T4, 6xHis-SUMO-TDP-43 (220-414) (human, UniProt Q13148 220-414).
T4 construct: Captured on the plate by an anti-6xHis antibody; also called 6xHis/SUMO tagged truncated TDP-43; not shown: N-terminal 6xHis and SUMO tags from a modified pET19-b vector
As to the kind of experiment: capture ELISA, antigen held by anti-6xHis antibody. Put shortly: (§3)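 Anti-6×His antibody captured 6×His-SUMO-TDP-43 (1.7 μM, 1 hr RT) in PBS with 1% BSA, 300 mM arginine and 0.1% PEG 5000, pH 7.5, avoiding direct adsorption. Three-fold antibody titrations were incubated 1 hr RT and detected with HRP anti-human IgG Fc colorimetrically. EC₅₀ from a four-parameter logistic fit.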

Experiment [5] concerns the target T5, 6xHis-SUMO-TDP-43 (1-414), properly folded full length (human, UniProt Q13148 1-414).
T5 construct: Purified with KSCN and arginine, monomeric; captured on the plate by an anti-6xHis antibody; also called folded full-length TDP-43; 6xHis/SUMO tagged full length TDP-43; not shown: N-terminal 6xHis and SUMO tags from a modified pET19-b vector
As to the kind of experiment: capture ELISA, antigen held by anti-6xHis antibody. A digest of the protocol: as §3

The target of experiment [6] is T6, His-huTDP-43 domain II (amino acid residues 99-204) (human).
T6 construct: Amino terminal His-tagged fragment, E. coli
T6 chain: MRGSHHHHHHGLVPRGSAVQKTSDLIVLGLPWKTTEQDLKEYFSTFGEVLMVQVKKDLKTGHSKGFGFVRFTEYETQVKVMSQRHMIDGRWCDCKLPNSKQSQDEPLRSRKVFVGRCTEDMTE
As to the kind of experiment: direct ELISA, coated antigen.

The target in experiment [7] is T7, His-huTDP-43 domain I (amino acid residues 2-106) (human).
T7 construct: Amino terminal His-tagged fragment, E. coli; also called N-terminal domain
T7 chain: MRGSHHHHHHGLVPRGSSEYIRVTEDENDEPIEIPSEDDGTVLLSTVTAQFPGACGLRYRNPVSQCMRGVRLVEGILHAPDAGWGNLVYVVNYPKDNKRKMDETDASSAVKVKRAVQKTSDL
As to the kind of experiment: direct ELISA, TDP-43 fragments coated at 6.6 ug/ml, OD 450. The method, then: (§4) Non-specific binding sites were blocked for 1 hr. at room temperature with PBST containing 2% BSA (Sigma, Buchs, Switzerland). Antibodies were incubated 1 hr. at room temperature. Binding was determined using either a donkey anti-human IgGγ-specific antibody conjugated with HRP (Jackson ImmunoResearch, USA) or a goat-anti mouse IgG (H+L)-specific secondary antibody conjugated with HRP (Jackson ImmunoResearch, USA)., followed by measurement of HRP activity in a standard colorimetric assay.

In experiment [8] the target is T7, His-huTDP-43 domain I (amino acid …). As to the kind of experiment: Western blot. The method, then:
as §2
(§5) Commercially available TDP-43 specific antibody TARDBP (M01), clone 2E2-D3 (Abnova, Taiwan) was used as positive control for human TDP-43 detection whereas, an anti-human IgG Fcγ-specific antibody was used as a negative control. Binding of the human-derived antibodies to specific TDP-43 domains was determined by Western Blot analysis.

In experiment [9] the target is T2, His-huTDP-43 domain III (amino acid …). Description: Western blot. The method, then: as §2, §5
Experiment [10] has as its target T3, His-huTDP-43 domain IV (amino acid …). Description: Western blot. The protocol:
as §2, §5

The target in experiment [11] is T6, His-huTDP-43 domain II (amino acid …). Description: Western blot. The protocol: as §2, §5
For experiment [12], the target named is T8, TDP-43 in human FTLD-U (and ALS) patient tissue sections (human, UniProt Q13148 1-414, limits assumed).
T8 construct: Target of immunohistochemistry; the forms present are not defined; also called pathologic TDP-43; cytoplasmic, nuclear, neuritic TDP-43 in FTLD-U case tissue
Description: immunohistochemistry, FTLD-U case hippocampus.

Experiment [13] concerns the target T6, His-huTDP-43 domain II (amino acid …). As to the kind of experiment: direct ELISA, coated antigen; direct ELISA, domain coated at 6.6 ug/ml (Example 7, FIG. 5H). The protocol:
as §4
(§6) Binding of the human-derived antibodies was determined by direct ELISA.

In experiment [14] the target is T2, His-huTDP-43 domain III (amino acid …). Description: direct ELISA, TDP-43 fragments coated at 6.6 ug/ml, OD 450. The protocol: as §4
In experiment [15] the target is T3, His-huTDP-43 domain IV (amino acid …). The description is as above. The method, then: as §4
Experiment [16] concerns the target T7, His-huTDP-43 domain I (amino acid …). As to the kind of experiment: direct ELISA, coated antigen; direct ELISA, domain coated at 6.6 ug/ml (Example 7, FIG. 5). The protocol:
as §4, §6

Experiment [17] has as its target T1, recombinant full-length His-tagged …. Description: direct ELISA, coated antigen. A digest of the protocol:
as §1
The source holds these as a separate data set.

Experiment [18] addresses T7, His-huTDP-43 domain I (amino acid …). Description: direct ELISA, coated antigen; direct ELISA, domain coated at 6.6 ug/ml (Example 7, FIG. 5M). The method, then:
as §4, §6

The target in experiment [19] is T6, His-huTDP-43 domain II (amino acid …). Description: direct ELISA, TDP-43 fragments coated at 6.6 ug/ml, OD 450. The method, then: as §4
Experiment [20] has as its target T2, His-huTDP-43 domain III (amino acid …). Description: direct ELISA, coated antigen.

Read-outs that look alike come from different tables or passages of the source. Where only a bound is given, the exact number is not on record here.

T5 sequence (Q13148 whole entry): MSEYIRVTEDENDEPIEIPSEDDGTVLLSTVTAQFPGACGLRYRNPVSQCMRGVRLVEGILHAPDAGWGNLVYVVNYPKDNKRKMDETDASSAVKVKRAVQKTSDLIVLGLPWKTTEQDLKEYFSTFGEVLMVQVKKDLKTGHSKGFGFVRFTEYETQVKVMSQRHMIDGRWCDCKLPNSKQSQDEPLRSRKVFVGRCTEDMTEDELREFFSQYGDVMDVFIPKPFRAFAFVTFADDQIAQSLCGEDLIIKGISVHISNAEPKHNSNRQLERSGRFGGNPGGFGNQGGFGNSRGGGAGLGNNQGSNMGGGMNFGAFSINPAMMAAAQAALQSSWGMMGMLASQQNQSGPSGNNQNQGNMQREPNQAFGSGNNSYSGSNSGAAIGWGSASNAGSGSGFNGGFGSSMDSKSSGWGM
T8 sequence (Q13148 whole entry): as above

B1: NI-205.31C11 (antibody, human IgG1, V domains shown)
VH: QVQLVESGGGVVQPGRSLRLSCVASGFTFDNYGMHWVRQAPGKGLEWLAVISYGGDHQFYGDSVKDRFTISRDNSKNTAYLQMHSLRPDDTAVYYCATGVTPDFWGQGTLVTVSS
VL: DVVMTQSPLSLPVTLGQPASISCRSSQSLVHSDGNTYLNWFQQRPGQSPRRLIYKVSHRDSGVPDRFSGSGSGTDFTLKISRVEAEDVGVYYCLQGTHWPPFTFGQGTKLEIK
notes: Human-derived
On to B1, for which the values for the 50% effective concentration (EC50) in experiment [1] and in experiment [5] were 11 nM and 21.1 nM, respectively. The binding result in experiment [2] is recorded as “no binding (tested: 10 nM)”; in experiment [3], “no binding (tested: 10 nM)”; in [4], “no binding”; in [6], “binds”; in experiment [7] it was “no binding”.

B2: NI-205.20A1 (antibody, V domains shown)
VH: EVQLVESGGGLVQPGGSLRLSCAASGFTFSSYRMNWVRQAPGKGLEWVSYISTSSSTIYYADSVKGRFTISRDNAKNSLYLQMNSLRAEDTAVYYCARAFDYWGQGTLVTVSS
VL: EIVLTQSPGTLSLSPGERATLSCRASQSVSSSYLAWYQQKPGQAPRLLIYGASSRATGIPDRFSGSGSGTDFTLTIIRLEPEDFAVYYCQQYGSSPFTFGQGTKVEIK
notes: Human-derived
In the case of B2, the binding result was “no binding” in [1]; “no binding (tested: 10 nM)” in experiment [8]; “no binding (tested: 10 nM)” in experiment [9]; “no binding (tested: 10 nM)” in [10]; “no binding (tested: 10 nM)” in [11]; “no binding” in [5]. In addition, the binding result in experiment [12] is on record as “no binding (tested: 50 nM)”.

B3: NI-205.38H2 (antibody, human IgG1, V domains shown)
VH: EVQLVESGGDLVQPGGSLRLSCTASGFNLGDYWMHWVRQVPGKGLVWVSRISSDGASVSYADFVEGRFTISRGNARNTLFLELNSLRLDDTAVYYCAMGVVWGQGTLVTVSS
VL: SYELTQPPSVSVSPGQTATISCSGDALPKRYAYWYKQKSGQVPVLIIYEDNKRPSGIPARFSGSSSGTMATLTITGAQVDDEADYYCYSSDNSDTYSVFGGGTKLTVL
notes: Human-derived
Consider B3, for which the EC50 in experiment [1] was 8.2 nM; in [5] it was greater than 120 nM. For the same molecule, the binding result in [13] is on record as “binds”; in experiment [4] it was “no binding”; in experiment [7] it was “no binding”; in experiment [14], “no binding”; in [15], “no binding”.

B4: NI-205.29E11 (antibody, human IgG1, V domains shown)
VH: QVQLVQSGAEVKKPGASVKVSCKASGYIFTDYFIHWIRQAPGQGLEWMGWIKPKSGGTDYAEKFQGRVTLTRDTSITTVYMELSRLNSDDTAVYYCARLKYSVPDSDYWGQGTLVTVSS
VL: DVVMTQSPLSLPVTLGQSASISCRSSQGLVHSDGNTYLNWFHQRPGQSPRRLIYKVFNRDSGVSDRFSGSGSGSDFTLMISRVEAEDVGIYYCMQGTLWPLTFGQGTKVEIK
notes: Human-derived
As for B4, the EC50 was 10.4 nM in experiment [1], greater than 97 nM in experiment [4] and greater than 100 nM in experiment [5]. Further, the binding result in experiment [16] was “binds”.

B5: NI-205.68G5 (antibody, human IgG1, V domains shown)
VH: QVQLVESGGGVVQPGRSLRLSCAASGFTFSSYGMHWVRQAPGKGLEWVAIIYYDSSQRYYADSVKGRFTISRDNSKNALYLQMNSLRAEDTALYYCARDLPFHYHRSASFAPSDTWGQGTLVTVSS
VL: EIVLTQSPGTLSLSPGERATLSCRASQAVTNNYLAWYQQKPGQAPRLLVYAASSRATGIPDRFYGSGSGADFTLTISRLEPEDFAVYYCQQYGTSPITFGQGTRLEIK
notes: Human-derived
As to B5, the EC50 in experiment [1] and in experiment [17] was greater than 100 nM in each case. For the same molecule, the binding result in [8], in [9], in experiment [10] and in experiment [11] was “no binding (tested: 10 nM)” in each case.

B6: NI-205.8C10 (antibody, human IgG1, V domains shown)
VH: EVQLVESGGGLVNPGGSLRLSCTASGFSFSTYSMNWVRQAPGKGLEWVSLITSSGSYIYYADSVKGRFTISRDDAKNSLYLQMNSLRAEDTAVYYCANMLAAAGSHYFHYWGQGTLVTVSS
VL: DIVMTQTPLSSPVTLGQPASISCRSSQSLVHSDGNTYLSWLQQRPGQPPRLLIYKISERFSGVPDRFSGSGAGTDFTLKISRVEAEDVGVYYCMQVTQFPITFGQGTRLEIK
notes: Human-derived
Take B6: the EC50 in [1] worked out at 15.6 nM. Moreover, the binding result in [18] was “binds”; in [14], “no binding”; in experiment [15], “no binding”; in experiment [19], “no binding”.

B7: NI-205.98H6 (antibody, human IgG1, V domains shown)
VH: EVQLLESGGALVQPGGSLRLSCAASGLTFSRHAFSWVRQAPGKGLEWVAISSGSGGNTYYAASVKGRFTISRDESKNTLYLQMNSLRVEDTALYYCAKEVLEWSLLSRYMDVWGKGTTVTVSS
VL: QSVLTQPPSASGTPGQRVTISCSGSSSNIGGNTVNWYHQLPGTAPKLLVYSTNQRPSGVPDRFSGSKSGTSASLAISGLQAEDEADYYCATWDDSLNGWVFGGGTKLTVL
notes: Human-derived
As to B7, the EC50 in [1] amounted to 2.6 nM; in experiment [4], 20 nM; in experiment [5], 46 nM. The binding result in experiment [20] is on record as “binds”; in experiment [7] it was “no binding”.
